Measurements as given in patent US20250170227A1 (published 2025).
Like-named read-outs stand apart in the source and are kept apart here.

Columns and labels:
C1s [1] = assay: C1s activity inhibition
C1s [2] = assay: C1s activity inhibition; remark: listed apart in the source

B1: rC1inh (other)
chain: NPNATSSSSQDPESLQDRGEGKVATTVISKMLFVEPILEVSSLPTTNSTTNSATKITANTTDEPTTQPTTEPTTQPTIQPTQPTTQLPTDSPTQPTTGSFCPGPVTLCSDLESHSTEAVLGDALVDFSLKLYHAFSAMKKVETNMAFSPFSIASLLTQVLLGAGENTKTNLESILSYPKDFTCVHQALKGFTTKGVTSVSQIFHSPDLAIRDTFVNASRTLYSSSPRVLSNNSDANLELINTWVAKNTNNKISRLLDSLPSDTRLVLLNAIYLSAKWKTTFDPKKTRMEPFHFKNSVIKVPMMNSKKYPVAHFIDQTLKAKVGQLQLSHNLSLVILVPQNLKHRLEDMEQALSPSVFKAIMEKLEMSKFQPTLLTLPRIKVTTSQDMLSIMEKLEFFDFSYDLNLCGLTEDPDLQVSAMQHQTVLELTETGVEAAAASAISVARTLLVFEVQQPFLFVLWDQQHKFPVFMGRVYDPRA
C1s [1]
  IC50: 1.8 nM
C1s [2]
  IC50: 1.7 nM
